In patent US20160272683A1 (Novo Nordisk, published 2016):
Numbered stars: 1 amine (or outer) side, 2 acyl side, 3 side chain; on linkers, the order of the positions; unused ones are H or OH. * marks the point of attachment. C18 diacid = O=C(O)CCCCCCCCCCCCCCCCC(=O)*; C16 diacid = O=C(O)CCCCCCCCCCCCCCC(=O)*; γGlu = O=C(O)[C@H](CCC(=O)[*:2])N[*:1]; C14 diacid = O=C(O)CCCCCCCCCCCCC(=O)*; C12 diacid = O=C(O)CCCCCCCCCCC(=O)*; Palmitoyl = CCCCCCCCCCCCCCCC(=O)*; AEEA = NCCOCCOCC(=O)O

T1: human amylin receptor (human calcitonin receptor + human RAMP3) (human) (UniProt P30988)
T1 sequence (looked up) 1: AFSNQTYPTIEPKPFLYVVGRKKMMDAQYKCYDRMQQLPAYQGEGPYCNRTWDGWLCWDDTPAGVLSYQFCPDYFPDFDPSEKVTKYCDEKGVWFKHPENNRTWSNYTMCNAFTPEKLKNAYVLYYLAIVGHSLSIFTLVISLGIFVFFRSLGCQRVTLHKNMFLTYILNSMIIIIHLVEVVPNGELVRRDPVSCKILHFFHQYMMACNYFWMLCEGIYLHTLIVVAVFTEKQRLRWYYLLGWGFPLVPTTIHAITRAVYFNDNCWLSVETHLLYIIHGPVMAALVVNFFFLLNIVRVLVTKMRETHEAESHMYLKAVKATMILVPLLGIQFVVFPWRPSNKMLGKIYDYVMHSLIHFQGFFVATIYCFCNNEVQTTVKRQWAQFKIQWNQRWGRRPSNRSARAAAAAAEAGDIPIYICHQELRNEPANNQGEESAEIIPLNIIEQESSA
T1 sequence (looked up) 2: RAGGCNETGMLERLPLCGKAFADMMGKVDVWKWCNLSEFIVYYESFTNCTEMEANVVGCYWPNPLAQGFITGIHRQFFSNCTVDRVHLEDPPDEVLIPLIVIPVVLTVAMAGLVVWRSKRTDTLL


Molecular target: T1, human amylin receptor (human calcitonin receptor + human RAMP3) (human)
Assay: whole-cell competition vs 125I-rat amylin (Assay Va)

Binder	IC50 [nM]
{C18 diacid}-EASELSTAALGRLSAELHELATLPRTETGPESP-NH2 (SMILES CC(C)C[C@H](NC(=O)[C@H](C)NC(=O)[C@H](C)NC(=O)[C@@H](NC(=O)[C@H](CO)NC(=O)[C@H](CC(C)C)NC(=O)[C@H](CCC(=O)O)NC(=O)[C@H](CO)NC(=O)[C@H](C)NC(=O)[C@H](CCC(=O)O)NC(=O)CCCCCCCCCCCCCCCCC(=O)O)[C@@H](C)O)C(=O)NCC(=O)N[C@@H](CCCNC(=N)N)C(=O)N[C@@H](CC(C)C)C(=O)N[C@@H](CO)C(=O)N[C@@H](C)C(=O)N[C@@H](CCC(=O)O)C(=O)N[C@@H](CC(C)C)C(=O)N[C@@H](Cc1c[nH]cn1)C(=O)N[C@@H](CCC(=O)O)C(=O)N[C@@H](CC(C)C)C(=O)N[C@@H](C)C(=O)N[C@H](C(=O)N[C@@H](CC(C)C)C(=O)N1CCC[C@H]1C(=O)N[C@@H](CCCNC(=N)N)C(=O)N[C@H](C(=O)N[C@@H](CCC(=O)O)C(=O)N[C@H](C(=O)NCC(=O)N1CCC[C@H]1C(=O)N[C@@H](CCC(=O)O)C(=O)N[C@@H](CO)C(=O)N1CCC[C@H]1C(N)=O)[C@@H](C)O)[C@@H](C)O)[C@@H](C)O) [[N-terminal(C18 diacid)]mimylin]	0.902
{C16 diacid}-EASELSTAALGRLSAELHELATLPRTETGPESP-NH2 [[N-terminal(C16 diacid)]mimylin]	0.498
{C14 diacid}-EASELSTAALGRLSAELHELATLPRTETGPESP-NH2 [[N-terminal(C14 diacid)]mimylin]	1.19
{C18 diacid}-EASELSTAALGRLSAEIHELATLPRTETGPESP-NH2 (SMILES CC[C@H](C)[C@H](NC(=O)[C@H](CCC(=O)O)NC(=O)[C@H](C)NC(=O)[C@H](CO)NC(=O)[C@H](CC(C)C)NC(=O)[C@H](CCCNC(=N)N)NC(=O)CNC(=O)[C@H](CC(C)C)NC(=O)[C@H](C)NC(=O)[C@H](C)NC(=O)[C@@H](NC(=O)[C@H](CO)NC(=O)[C@H](CC(C)C)NC(=O)[C@H](CCC(=O)O)NC(=O)[C@H](CO)NC(=O)[C@H](C)NC(=O)[C@H](CCC(=O)O)NC(=O)CCCCCCCCCCCCCCCCC(=O)O)[C@@H](C)O)C(=O)N[C@@H](Cc1c[nH]cn1)C(=O)N[C@@H](CCC(=O)O)C(=O)N[C@@H](CC(C)C)C(=O)N[C@@H](C)C(=O)N[C@H](C(=O)N[C@@H](CC(C)C)C(=O)N1CCC[C@H]1C(=O)N[C@@H](CCCNC(=N)N)C(=O)N[C@H](C(=O)N[C@@H](CCC(=O)O)C(=O)N[C@H](C(=O)NCC(=O)N1CCC[C@H]1C(=O)N[C@@H](CCC(=O)O)C(=O)N[C@@H](CO)C(=O)N1CCC[C@H]1C(N)=O)[C@@H](C)O)[C@@H](C)O)[C@@H](C)O) [[N-terminal(C18 diacid), 17I]mimylin]	1.48
{C18 diacid}-EASELSTAVLGRLSAELHELATLPRTETGPESP-NH2 (SMILES CC(C)C[C@H](NC(=O)[C@H](CCC(=O)O)NC(=O)[C@H](Cc1c[nH]cn1)NC(=O)[C@H](CC(C)C)NC(=O)[C@H](CCC(=O)O)NC(=O)[C@H](C)NC(=O)[C@H](CO)NC(=O)[C@H](CC(C)C)NC(=O)[C@H](CCCNC(=N)N)NC(=O)CNC(=O)[C@H](CC(C)C)NC(=O)[C@@H](NC(=O)[C@H](C)NC(=O)[C@@H](NC(=O)[C@H](CO)NC(=O)[C@H](CC(C)C)NC(=O)[C@H](CCC(=O)O)NC(=O)[C@H](CO)NC(=O)[C@H](C)NC(=O)[C@H](CCC(=O)O)NC(=O)CCCCCCCCCCCCCCCCC(=O)O)[C@@H](C)O)C(C)C)C(=O)N[C@@H](C)C(=O)N[C@H](C(=O)N[C@@H](CC(C)C)C(=O)N1CCC[C@H]1C(=O)N[C@@H](CCCNC(=N)N)C(=O)N[C@H](C(=O)N[C@@H](CCC(=O)O)C(=O)N[C@H](C(=O)NCC(=O)N1CCC[C@H]1C(=O)N[C@@H](CCC(=O)O)C(=O)N[C@@H](CO)C(=O)N1CCC[C@H]1C(N)=O)[C@@H](C)O)[C@@H](C)O)[C@@H](C)O) [[N-terminal(C18 diacid), 9V]mimylin]	0.796
{C14 diacid-γGlu-γGlu-AEEA-AEEA-AEEA-AEEA}-EASELSTAALGRLSAELHELATLPRTETGPESP-NH2 [[N-terminal(C14 diacid-2xgGlu-4xOEG)]mimylin]	8.38
{C12 diacid}-EASELSTAALGRLSAELHELATLPRTETGPESP-NH2 [[N-terminal(C12 diacid)]mimylin]	8.97
{C18 diacid}-EASELSTAALGRLSAELHEIATLPRTETGPESP-NH2 (SMILES CC[C@H](C)[C@H](NC(=O)[C@H](CCC(=O)O)NC(=O)[C@H](Cc1c[nH]cn1)NC(=O)[C@H](CC(C)C)NC(=O)[C@H](CCC(=O)O)NC(=O)[C@H](C)NC(=O)[C@H](CO)NC(=O)[C@H](CC(C)C)NC(=O)[C@H](CCCNC(=N)N)NC(=O)CNC(=O)[C@H](CC(C)C)NC(=O)[C@H](C)NC(=O)[C@H](C)NC(=O)[C@@H](NC(=O)[C@H](CO)NC(=O)[C@H](CC(C)C)NC(=O)[C@H](CCC(=O)O)NC(=O)[C@H](CO)NC(=O)[C@H](C)NC(=O)[C@H](CCC(=O)O)NC(=O)CCCCCCCCCCCCCCCCC(=O)O)[C@@H](C)O)C(=O)N[C@@H](C)C(=O)N[C@H](C(=O)N[C@@H](CC(C)C)C(=O)N1CCC[C@H]1C(=O)N[C@@H](CCCNC(=N)N)C(=O)N[C@H](C(=O)N[C@@H](CCC(=O)O)C(=O)N[C@H](C(=O)NCC(=O)N1CCC[C@H]1C(=O)N[C@@H](CCC(=O)O)C(=O)N[C@@H](CO)C(=O)N1CCC[C@H]1C(N)=O)[C@@H](C)O)[C@@H](C)O)[C@@H](C)O) [[N-terminal(C18 diacid), 20I]mimylin]	0.511

Stronger by IC50, values ahead:

IC50 [nM]	Binder
0.429	{C18 diacid}-EASEISTAALGRLSAELHELATLPRTETGPESP-NH2 (SMILES CC[C@H](C)[C@H](NC(=O)[C@H](CCC(=O)O)NC(=O)[C@H](CO)NC(=O)[C@H](C)NC(=O)[C@H](CCC(=O)O)NC(=O)CCCCCCCCCCCCCCCCC(=O)O)C(=O)N[C@@H](CO)C(=O)N[C@H](C(=O)N[C@@H](C)C(=O)N[C@@H](C)C(=O)N[C@@H](CC(C)C)C(=O)NCC(=O)N[C@@H](CCCNC(=N)N)C(=O)N[C@@H](CC(C)C)C(=O)N[C@@H](CO)C(=O)N[C@@H](C)C(=O)N[C@@H](CCC(=O)O)C(=O)N[C@@H](CC(C)C)C(=O)N[C@@H](Cc1c[nH]cn1)C(=O)N[C@@H](CCC(=O)O)C(=O)N[C@@H](CC(C)C)C(=O)N[C@@H](C)C(=O)N[C@H](C(=O)N[C@@H](CC(C)C)C(=O)N1CCC[C@H]1C(=O)N[C@@H](CCCNC(=N)N)C(=O)N[C@H](C(=O)N[C@@H](CCC(=O)O)C(=O)N[C@H](C(=O)NCC(=O)N1CCC[C@H]1C(=O)N[C@@H](CCC(=O)O)C(=O)N[C@@H](CO)C(=O)N1CCC[C@H]1C(N)=O)[C@@H](C)O)[C@@H](C)O)[C@@H](C)O)[C@@H](C)O) [[N-terminal(C18 diacid), 5I]mimylin]
0.435	Palmitoyl-EASELSTAALGRLSAELHELATLPRTETGPESP-NH2 [[N-terminal(C16)]mimylin]
0.417	{C18 diacid}-EASELSTAILGRLSAELHELATLPRTETGPESP-NH2 (SMILES CC[C@H](C)[C@H](NC(=O)[C@H](C)NC(=O)[C@@H](NC(=O)[C@H](CO)NC(=O)[C@H](CC(C)C)NC(=O)[C@H](CCC(=O)O)NC(=O)[C@H](CO)NC(=O)[C@H](C)NC(=O)[C@H](CCC(=O)O)NC(=O)CCCCCCCCCCCCCCCCC(=O)O)[C@@H](C)O)C(=O)N[C@@H](CC(C)C)C(=O)NCC(=O)N[C@@H](CCCNC(=N)N)C(=O)N[C@@H](CC(C)C)C(=O)N[C@@H](CO)C(=O)N[C@@H](C)C(=O)N[C@@H](CCC(=O)O)C(=O)N[C@@H](CC(C)C)C(=O)N[C@@H](Cc1c[nH]cn1)C(=O)N[C@@H](CCC(=O)O)C(=O)N[C@@H](CC(C)C)C(=O)N[C@@H](C)C(=O)N[C@H](C(=O)N[C@@H](CC(C)C)C(=O)N1CCC[C@H]1C(=O)N[C@@H](CCCNC(=N)N)C(=O)N[C@H](C(=O)N[C@@H](CCC(=O)O)C(=O)N[C@H](C(=O)NCC(=O)N1CCC[C@H]1C(=O)N[C@@H](CCC(=O)O)C(=O)N[C@@H](CO)C(=O)N1CCC[C@H]1C(N)=O)[C@@H](C)O)[C@@H](C)O)[C@@H](C)O) [[N-terminal(C18 diacid), 9I]mimylin]
0.329	{C18 diacid}-EASELSTAALGRLSAELAELATLPRTETGPESP-NH2 (SMILES CC(C)C[C@H](NC(=O)[C@H](C)NC(=O)[C@H](C)NC(=O)[C@@H](NC(=O)[C@H](CO)NC(=O)[C@H](CC(C)C)NC(=O)[C@H](CCC(=O)O)NC(=O)[C@H](CO)NC(=O)[C@H](C)NC(=O)[C@H](CCC(=O)O)NC(=O)CCCCCCCCCCCCCCCCC(=O)O)[C@@H](C)O)C(=O)NCC(=O)N[C@@H](CCCNC(=N)N)C(=O)N[C@@H](CC(C)C)C(=O)N[C@@H](CO)C(=O)N[C@@H](C)C(=O)N[C@@H](CCC(=O)O)C(=O)N[C@@H](CC(C)C)C(=O)N[C@@H](C)C(=O)N[C@@H](CCC(=O)O)C(=O)N[C@@H](CC(C)C)C(=O)N[C@@H](C)C(=O)N[C@H](C(=O)N[C@@H](CC(C)C)C(=O)N1CCC[C@H]1C(=O)N[C@@H](CCCNC(=N)N)C(=O)N[C@H](C(=O)N[C@@H](CCC(=O)O)C(=O)N[C@H](C(=O)NCC(=O)N1CCC[C@H]1C(=O)N[C@@H](CCC(=O)O)C(=O)N[C@@H](CO)C(=O)N1CCC[C@H]1C(N)=O)[C@@H](C)O)[C@@H](C)O)[C@@H](C)O) [[N-terminal(C18 diacid), 18A]mimylin]
